Results taken from patent publication US6399747 (Amgen, dated 2002).

B1: CH1 domain of p52 Shc (yeast two-hybrid construct) (other, UniProt P29353-2 230-377, looked up)
chain: EEEEPPDHQYYNDFPGKEPPLGGVVDMRLREGAAPGAARPTAPNAQTPSHLGATLPVGQPVGGDPEVRKQMPPPPPCPGRELFDDPSYVNVQNLDKARQAVGGAGPPNPAINGSAPRDLFDMKPFEDALRVPPPPQSVSMAEQLRGEP
notes: domain: CH1; Construct is not described
B2: PTB domain of p52 Shc (yeast two-hybrid construct) (other, UniProt P29353-2 1-209, looked up)
chain: MNKLSGGGGRRTRVEGGQLGGEEWTRHGSFVNKPTRGWLHPNDKVMGPGVSYLVRYMGCVEVLQSMRALDFNTRTQVTREAISLVCEAVPGAKGATRRRKPCSRPLSSILGRSNLKFAGMPITLTVSTSSLNLMAADCKQIIANHHMQSISFASGGDPDTAEYVAYVAKDPVNQRACHILECPEGLAQDVISTIGQAFELRFKQYLRNP
notes: domain: PTB; Construct is not described
B3: GST-Nck SH2 (amino acids 281-377 of human Nck) (other, UniProt P16333 281-377, looked up)
chain: PWYYGKVTRHQAEMALNERGHEGDFLIRDSESSPNDFSVSLKAQGKNKHFKVQLKETVYCIGQRKFSTMEELVEHYKKAPIFTSEQGEKLYLVKHLS
notes: range 281-377; not shown: glutathione S-transferase (GST)

Key:
[1] = biological target: T1, mPAL cDNA clone from the yeast two-hybrid screen, fused to the GAL4 transcription activation domain (yeast; mouse, UniProt Q9Z179 16-668); test: yeast two-hybrid
T1 construct: Eleven clones were isolated (3 from T-cell, 8 from embryo library); As an in-frame fusion it may start at residue 11; also called GAL4-cDNA fusion; GAL4-TA fusion
T1 sequence: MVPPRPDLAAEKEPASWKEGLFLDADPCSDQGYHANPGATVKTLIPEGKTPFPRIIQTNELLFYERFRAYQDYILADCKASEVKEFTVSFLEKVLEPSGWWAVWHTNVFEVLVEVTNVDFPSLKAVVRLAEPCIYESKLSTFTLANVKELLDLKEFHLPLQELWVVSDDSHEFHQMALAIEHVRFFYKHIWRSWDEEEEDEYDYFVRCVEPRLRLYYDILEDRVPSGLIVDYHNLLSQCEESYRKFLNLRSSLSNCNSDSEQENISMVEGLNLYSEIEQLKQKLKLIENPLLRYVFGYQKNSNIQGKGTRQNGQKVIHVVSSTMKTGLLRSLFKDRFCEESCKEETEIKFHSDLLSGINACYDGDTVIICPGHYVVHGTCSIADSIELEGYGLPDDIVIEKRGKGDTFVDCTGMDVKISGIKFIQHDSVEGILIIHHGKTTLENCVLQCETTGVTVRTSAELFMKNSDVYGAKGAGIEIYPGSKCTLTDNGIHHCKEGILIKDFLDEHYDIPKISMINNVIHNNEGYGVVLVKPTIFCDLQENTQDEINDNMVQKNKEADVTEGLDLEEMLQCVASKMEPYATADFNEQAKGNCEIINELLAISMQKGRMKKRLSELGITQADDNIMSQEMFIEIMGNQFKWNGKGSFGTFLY

[2] = biological target: T2, mPAL (amino acids 11 to 648) expressed in 293T cells from pcDNA3.1-mPAL (mouse, UniProt Q9Z179 11-648); test: GST pull-down from 293T-mPAL lysate, anti-mPAL immunoblot
T2 sequence: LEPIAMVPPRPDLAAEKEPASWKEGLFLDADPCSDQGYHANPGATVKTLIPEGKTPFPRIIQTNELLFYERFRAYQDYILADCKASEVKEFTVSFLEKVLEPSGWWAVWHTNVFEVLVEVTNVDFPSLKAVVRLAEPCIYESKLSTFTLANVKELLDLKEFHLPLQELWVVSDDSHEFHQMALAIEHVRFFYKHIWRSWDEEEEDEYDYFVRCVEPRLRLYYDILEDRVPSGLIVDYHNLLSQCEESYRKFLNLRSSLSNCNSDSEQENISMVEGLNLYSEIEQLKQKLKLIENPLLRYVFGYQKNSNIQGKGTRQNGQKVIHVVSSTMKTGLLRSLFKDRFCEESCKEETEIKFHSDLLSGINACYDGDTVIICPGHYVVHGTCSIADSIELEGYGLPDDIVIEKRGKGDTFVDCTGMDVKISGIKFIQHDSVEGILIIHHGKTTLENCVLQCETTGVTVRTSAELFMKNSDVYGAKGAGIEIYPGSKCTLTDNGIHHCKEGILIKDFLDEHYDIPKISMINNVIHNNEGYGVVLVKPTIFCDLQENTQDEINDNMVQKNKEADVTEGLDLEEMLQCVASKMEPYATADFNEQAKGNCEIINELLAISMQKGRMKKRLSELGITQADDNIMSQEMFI
Procedure: To examine the specificity of the mPAL-Shc SH2 interaction, a series of GST-SH2 fusion proteins generated from several signal transduction molecules were tested for their ability to precipitate mPAL. A panel of GST-SH2 fusion proteins generated from several signal transduction molecules (Shc PTB domain, Blaikie et al., *J. Biol. Chem.* 269:23031–32034(1994), Shc SH2 domain, Pellici et al., *Cell* 70:93–104 (1992), Grb2 SH2 domain, Rozakis-Adcock et al., *Nature* 360:689–692 (1992), Vav SH2 domain Margolis et al., *Nature* 356: 71–74 (1992), N-terminal SH2 domain of ras-GAP, N-terminal SH2 domain (p85-N) and C-terminal SH2 domain (p85-C) of p85 subunit of PI-3 kinase, N-terminal SH2 domain (PLCγ-N), and C-terminal SH2 domain (PLCγ-C) of phospholipase C-γ1 Anderson et al., *Science* 250:979–982 (1992), Ellis et al., *Mol. Cell Biol.* 12:991–997(1992), and Nck SH2 domain, Lehman et al., *Nucl. Acids Res.* 18:1048 (1990), were immobilized on glutathione-Sepharose beads.

Row | Binder | binding result [1] | binding result [2]
1 | B1 | no binding | 
2 | B2 | no binding | 
3 | B3 |  | no binding
